Values of other authors in PMC8461181.

Molecular target: GnIH (Coturnix japonica) (UniProt Q9DGD4)
Assay: Scatchard analysis

Kd: 752 pM
Substance: GPR147 (from UniProt Q9GZQ6)
